Experimental findings from article PMC10198636 (Science Advances, 2023) are described below.

The target in the experiment is Cul3(N), recombinant N-terminal domain of human Cul3 (human, UniProt Q13618 1-417). In words: ITC. For orientation: In ITC the heat of successive injections is recorded.
Sequence of Cul3(N), recombinant N-terminal domain of human Cul3 (Q13618 1-417): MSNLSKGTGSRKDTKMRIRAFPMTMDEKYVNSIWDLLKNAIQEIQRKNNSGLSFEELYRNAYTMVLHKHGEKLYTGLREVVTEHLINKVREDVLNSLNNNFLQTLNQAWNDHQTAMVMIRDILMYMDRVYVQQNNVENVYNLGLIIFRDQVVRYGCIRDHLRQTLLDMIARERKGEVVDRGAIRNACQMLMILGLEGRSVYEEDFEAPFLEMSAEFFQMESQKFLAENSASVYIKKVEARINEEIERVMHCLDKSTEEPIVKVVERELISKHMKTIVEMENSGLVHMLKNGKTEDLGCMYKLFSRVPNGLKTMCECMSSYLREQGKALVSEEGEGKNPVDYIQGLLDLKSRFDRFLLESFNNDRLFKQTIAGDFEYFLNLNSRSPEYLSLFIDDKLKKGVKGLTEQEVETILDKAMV

B1: Keap1(N), recombinant N-terminal portion of human Keap1 spanning the BTB and BACK domains (domain or fragment)
chain: MQPDPRPSGAGACCRFLPLQSQCPEGAGDAVMYASTECKAEVTPSQHGNRTFSYTLEDHTKQAFGIMNELRLSQQLCDVTLQVKYQDAPAAQFMAHKVVLASSSPVFKAMFTNGLREQGMEVVSIEGIHPKVMERLIEFAYTASISMGEKCVLHVMNGAVMYQIDSVVRACSDFLVQQLDPSNAIGIANFAEQIGCVELHQRAREYIYMHFGEVAKQEEFFNLSHCQLVTLISRDDLNVRCESEVFHACINWVKYDCEQRRFYVQALLRAVRCHSLTPNFLQMQLQKCEILQSDSRCKDYLVKIFEELT
Regarding B1, the Kd was found to be 562 nM.

B2: KLHL3(N), recombinant N-terminal portion of human KLHL3 spanning the BTB and BACK domains (domain or fragment)
chain: MEGESVKLSSQTLIQAGDDEKNQRTITVNPAHMGKAFKVMNELRSKQLLCDVMIVAEDVEIEAHRVVLAACSPYFCAMFTGDMSESKAKKIEIKDVDGQTLSKLIDYIYTAEIEVTEENVQVLLPAASLLQLMDVRQNCCDFLQSQLHPTNCLGIRAFADVHTCTDLLQQANAYAEQHFPEVMLGEEFLSLSLDQVCSLISSDKLTVSSEEKVFEAVISWINYEKETRLEHMAKLMEHVRLPLLPRDYLVQTVEEEALIKNNNTCKDFLIEAMKYHLLP
B2: the Kd turned out to be 13.8 nM.

Usually Kd stands for the equilibrium constant for the complex coming apart.
